Each block holds one binder with its values, some of them ahead of it. Starred links: 1 amine or outer side, 2 acyl side, 3 side chain; linkers in the order of their positions; H or OH if unused. Positions of bridges follow the written chain, without caps; N, C: chain ends. Non-standard residues stand in square brackets, D forms with d. Primed or numbered codes have the meaning given here. PyrS2″ = (S)-3-amino-1-((pent-4-en-1-yloxy)carbonyl)pyrrolidine-3-carboxylic acid (stapling residue), C=CCCCOC(=O)N1CC[C@@](N[*:1])(C(=O)[*:2])C1; PyrS3″ = (S)-3-amino-1-((hex-5-en-1-yloxy)carbonyl)pyrrolidine-3-carboxylic acid (stapling residue), C=CCCCCOC(=O)N1CC[C@@](N[*:1])(C(=O)[*:2])C1; (TfePpz)GlnR = (S)-2-amino-5-oxo-5-(4-(2,2,2-trifluoroethyl)piperazin-1-yl)pentanoic acid, O=C(CC[C@H](N[*:1])C(=O)[*:2])N1CCN(CC(F)(F)F)CC1; B5(24) = 2-amino-2-(pent-4-en-1-yl)hept-6-enoic acid, 2,2-bis(4-pentenyl)glycine (stitching residue), C=CCCCC(CCCC=C)(N[*:1])C(=O)[*:2]; B5(4) = 2,2-bis(4-pentenyl)glycine = 2-amino-2-(pent-4-en-1-yl)hept-6-enoic acid (stitching residue), C=CCCCC(CCCC=C)(N[*:1])C(=O)[*:2]; B5(5) = 2,2-bis(4-pentenyl)glycine, 2-amino-2-(pent-4-en-1-yl)hept-6-enoic acid (stitching residue), C=CCCCC(CCCC=C)(N[*:1])C(=O)[*:2]; B5(21) = 2-amino-2-(pent-4-en-1-yl)hept-6-enoic acid, bis(4-pentenyl)glycine (stitching residue), C=CCCCC(CCCC=C)(N[*:1])C(=O)[*:2]; TfeGA = (S)-2-amino-3-((carboxymethyl)(2,2,2-trifluoroethyl)amino)propanoic acid, O=C([C@H](CN(CC(=O)[*:3])CC(F)(F)F)N[*:1])[*:2]; B5(12) = 2-amino-2-(pent-4-en-1-yl)hept-6-enoic acid (two olefin side chains), C=CCCCC(CCCC=C)(N[*:1])C(=O)[*:2]; B5(19) = 2-amino-2-(pent-4-en-1-yl)hept-6-enoic acid (bis(4-pentenyl)glycine), C=CCCCC(CCCC=C)(N[*:1])C(=O)[*:2]; Phe(2-NO2) = N[C@@H](Cc1ccccc1[N+](=O)[O-])C(=O)O; Phe(3-CONH2) = NC(=O)c1cccc(C[C@H](N)C(=O)O)c1; Phe(3-COOH) = N[C@@H](Cc1cccc(C(=O)O)c1)C(=O)O; Phe(2-Br) = N[C@@H](Cc1ccccc1Br)C(=O)O; Phe(3-F) = N[C@@H](Cc1cccc(F)c1)C(=O)O; Phe(4-F) = N[C@@H](Cc1ccc(F)cc1)C(=O)O; Phe(2-F) = N[C@@H](Cc1ccccc1F)C(=O)O; Bta = N[C@@H](Cc1csc2ccccc12)C(=O)O; Lys(iPr) = CC(C)NCCCC[C@H](N)C(=O)O; αAllylPro = C=CC[C@@]1(C(=O)O)CCCN1; tBuAla = CC(C)(C)C[C@H](N)C(=O)O; 3Thi = N[C@@H](Cc1ccsc1)C(=O)O; Cha = N[C@@H](CC1CCCCC1)C(=O)O; S8 = C=CCCCCCC[C@](C)(N)C(=O)O; PyrS2(4) = not defined here; hSer = N[C@@H](CCO)C(=O)O; Nle = CCCC[C@H](N)C(=O)O
Legend:
[1] = target: T1, full-length beta-Catenin (Uniprot ID P35222) (Homo sapiens (Human), UniProt P35222 1-781); assay: fluorescence polarization competition; full-length beta-catenin, competitor 5FAM-TCF4(10-53) probe
T1 construct: also called bCat; B-Catenin
T1 sequence: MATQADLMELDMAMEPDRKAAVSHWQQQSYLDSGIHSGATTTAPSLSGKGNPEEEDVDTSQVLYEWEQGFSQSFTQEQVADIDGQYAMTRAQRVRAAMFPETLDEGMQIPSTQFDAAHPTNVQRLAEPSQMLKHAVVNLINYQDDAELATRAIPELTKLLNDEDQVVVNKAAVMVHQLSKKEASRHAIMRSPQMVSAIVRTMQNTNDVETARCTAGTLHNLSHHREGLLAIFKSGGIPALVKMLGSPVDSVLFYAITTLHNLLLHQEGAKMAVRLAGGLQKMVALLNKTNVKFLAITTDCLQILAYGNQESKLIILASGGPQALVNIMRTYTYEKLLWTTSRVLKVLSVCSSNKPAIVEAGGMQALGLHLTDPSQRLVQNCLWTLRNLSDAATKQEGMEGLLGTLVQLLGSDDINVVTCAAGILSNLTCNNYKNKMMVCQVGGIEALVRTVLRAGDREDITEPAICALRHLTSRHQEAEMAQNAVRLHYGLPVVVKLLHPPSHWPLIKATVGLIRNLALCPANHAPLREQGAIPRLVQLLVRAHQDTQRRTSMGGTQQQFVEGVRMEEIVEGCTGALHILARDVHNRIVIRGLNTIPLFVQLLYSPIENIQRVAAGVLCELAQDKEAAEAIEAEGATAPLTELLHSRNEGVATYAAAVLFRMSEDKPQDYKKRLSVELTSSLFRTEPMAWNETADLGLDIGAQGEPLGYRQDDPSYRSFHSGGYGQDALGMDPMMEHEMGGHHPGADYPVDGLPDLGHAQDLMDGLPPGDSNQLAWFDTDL
How it was run: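 Data fitted to 1:1 binding model with hill slope from duplicate reads taken after 60 minutes at 20° C. in the dark.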

[2] = target: T2, B-cat-Halo (beta-catenin HaloTag construct transfected into HEK293 cells) (UniProt P35222 1-781); assay: cell-based or functional assay
T2 sequence (looked up): T1 sequence

[3] = target: T3, B-cat-Halo (UniProt P35222 1-781); assay: cell-based or functional assay
T3 sequence (looked up): T1 sequence

[4] = target: T4, full-length beta-Catenin (Uniprot ID P35222) (Homo sapiens (Human), UniProt P35222 1-781); assay: fluorescence polarization competition; peptide titrated against 10 nM full-length beta-catenin + 10 nM 5FAM-TCF4(10-53) probe
T4 construct: The assay text says 'full-length'; also called bCat; B-Catenin
T4 sequence: T1 sequence
Description: The plate was incubated protected from light for 60 minutes at 20° C. prior to read. Reads were performed on a CLARIOstar plate reader (BMG Labtech) in duplicate, and data were fitted to a 1:1 binding model with hill slope using an in-house script. All provided concentrations are final concentrations.

NanoBRET Abs IC50 [2]: 7100 nM
Binder: Ac-[αAllylPro]D[tBuAla][B5(19)]D[TfeGA]AAF[(TfePpz)GlnR][PyrS2″][3Thi][Bta]Q-NH2 (staple 1-4, 4-11) [I-1935]

NanoBRET Abs IC50 [3]: > 20000 nM
Binder: Ac-[αAllylPro]D[tBuAla][B5(5)]D[TfeGA][Lys(iPr)]AFT[PyrS2″][3Thi][Bta]V-NH2 (staple 1-4, 4-11) [I-1764]

NanoBRET Abs IC50 [2]: 9200 nM
B3: I-1916 (peptide)
peptide: Ac-[αAllylPro]D[tBuAla][B5(4)]D[Phe(3-COOH)]HAFL[PyrS2(4)][3Thi][Bta]A-NH2
modifications: staple 1-4, 4-11; not fully specified; printed as Ac-PL3-Asp-Npg-B5-Asp-3COOHF-His-Ala-Phe-Leu-PyrS2-3Thi-BztA-Ala-NH2; reading uncertain

IC50 [1]: 1550 nM
Binder: Ac-[αAllylPro]DA[B5(21)]DEAA[Phe(2-F)]N[S8]F[Bta]Q-NH2 (staple 1-4, 4-11, Stapled peptide composition) [I-453]

NanoBRET Abs IC50 [2]: 4700 nM
B5: I-1919 (peptide)
peptide: Ac-[αAllylPro]D[tBuAla][B5(4)]D[Phe(3-COOH)][Nle]AFL[PyrS2(4)][3Thi][Bta]A-NH2
modifications: staple 1-4, 4-11; not fully specified; printed as Ac-PL3-Asp-Npg-B5-Asp-3COOHF-nLeu-Ala-Phe-Leu-PyrS2-3Thi-BztA-Ala-NH2; reading uncertain

Second part, the binder before the results:

B1: I-464 (peptide)
peptide: Ac-[αAllylPro]DA[B5(21)]DEAAFN[PyrS3″]F[Bta]Q-NH2
modifications: staple 1-4, 4-11; not fully specified; printed as Ac-PL3-Asp-Ala-B5-Asp-Glu-Ala-Ala-Phe-Asn-PyrS3-Phe-BztA-Gln-NH2
notes: Stapled peptide; later-eluting HPLC peak (staple isomer composition)
IC50 [1]: 57 nM

Binder: Ac-[αAllylPro]DA[B5(21)]DEAA[Phe(4-F)]N[S8]F[Bta]Q-NH2 (staple 1-4, 4-11, Stapled peptide composition) [I-455]
IC50 [1]: 83.5 nM

Binder: Ac-[αAllylPro]DA[B5(21)]DEAA[Phe(3-F)]N[S8]F[Bta]Q-NH2 (staple 1-4, 4-11, Stapled peptide composition) [I-454]
IC50 [1]: 125 nM

Binder: Ac-[αAllylPro]DA[B5(21)]DEAAFN[S8][Phe(2-NO2)][Bta]Q-NH2 (staple 1-4, 4-11, Stapled peptide composition) [I-441]
IC50 [1]: 133 nM

B2: I-463 (peptide)
peptide: Ac-[αAllylPro]DA[B5(21)]DEAAFN[PyrS3″]F[Bta]Q-NH2
modifications: staple 1-4, 4-11; also: earlier-eluting HPLC staple isomer
notes: Stapled peptide; earlier-eluting HPLC peak (staple isomer composition)
IC50 [1]: 92 nM

B4: I-1913 (peptide)
peptide: Ac-[αAllylPro]D[tBuAla][B5(12)]D[Phe(3-COOH)][Nle]AFL[PyrS2(4)][3Thi][Bta]F-NH2
modifications: staple 1-4, 4-11; not fully specified; printed as Ac-PL3-Asp-Npg-B5-Asp-3COOHF-nLeu-Ala-Phe-Leu-PyrS2-3Thi-BztA-Phe-NH2; reading uncertain
NanoBRET Abs IC50 [2]: 17500 nM

Binder: Ac-[αAllylPro]DA[B5(24)]DEAAFN[S8][Phe(2-Br)][Bta]Q-NH2 (staple 1-4, 4-11, Stapled peptide composition) [I-436]
IC50 [4]: 56 nM

Binder: Ac-[αAllylPro]N[Cha][B5(19)]DQ[Lys(iPr)]AFN[PyrS2″][Phe(3-CONH2)][Bta][hSer]-NH2 (staple 1-4, 4-11) [I-1929]
NanoBRET Abs IC50 [2]: > 20000 nM

Binder: Ac-[αAllylPro]D[tBuAla][B5(5)]D[TfeGA][Lys(iPr)]AFT[PyrS2″][3Thi][Bta]V-NH2 (staple 1-4, 4-11; also: -CH=CH- in each staple reduced to -CH2-CH2-) [I-1770]
NanoBRET Abs IC50 [3]: > 20000 nM

Binder: Ac-[αAllylPro]D[tBuAla][B5(5)]D[TfeGA][Lys(iPr)]AFL[PyrS2″][3Thi][Bta]V-NH2 (staple 1-4, 4-11) [I-1763]
NanoBRET Abs IC50 [3]: > 20000 nM
